{"source": "the DeepSol protein solubility set", "data": [{"experiment": "soluble on expression in E. coli; label from the status in PepcDB or PDB records", "values": [{"sequence": "MGSDKIHHHHHHMLELRHLRTLIALRDAGSLVEAAERVHLTQSALSHQIKDLEERLGSPLFLRKTRPVTFTRAGERLLALAEQILPQIRMAERDLARLAGHEQGRLHMAIECHSCFQWLMPTIDHFRDHWPEVEVDIPSGYSFDALPSLARESLDLVITADPQPLAGIHYEPLFRYEGLLAVGKQHPLARRDWVTPEELARETLITYPVEHTRLDVFTQFLTPAGFTPAEVRTAELTIMMMQLVASGRGVCALPNWALTEYLERGYVRALHLGEQGVWSTLFAAIREESRDAPWMEDFLRTARETSFAVLAGIKPA", "soluble on expression in E. coli": "not soluble"}, {"sequence": "MGSDKIHHHHHHFGKQSKPTPNFAKKSDAYSADDDRVPNLVDDDEEEIIGDEEDDVNQPGPSGSQSNPEPQDEEENAEQQSANSSQSSAAEEEDDEHVVPENEPVKPTEEFAKKSPKNTGGAKRRTARRGD", "soluble on expression in E. coli": "not soluble"}, {"sequence": "MKPDAHHVKQFLLRLQDDICQTLSAVDGANFVEDSWRREAGGGGRSRVLRNGGIFEQAGVNFSHVHGDAMPASATAHRPELAGRSFEAMGVSLVVHPHNPYIPTSHANVRFFIAEKPGADPVWWFGGGFDLTPYYGFEEDAVHWHRTARDLCQPFGDDVYPRYKKWCDDYFFLKHRNEQRGVGGLFFDDLNTPDFDHCFDFMQAVGNGYTRAYLPIVERRKAMVWGERERNFQLYRRGRYVEFNLVWDRGTLFGLQTGGRTESILMSMPPLVRWEYDWQPEAGSPEAALSEFIQVRDWILEHHHHHH", "soluble on expression in E. coli": "soluble"}, {"sequence": "MGSLRLTERPHVRKARLWVKLSDGKEGWVRCDLCQRRCVIAPGKYGACGVRKNIGGELYTLVYGLLSASNIDPIEKKPLLHFYPGSTVLSISTVGCNFFCQFCQNFEISQSRLEKGLYGVYRTPEEVVRLALVYGADGITYTYNEPTIFFETVYDVAKEAKKHGLFNTMVTNGYMTPEAVDELGSLIDAATVDFKGGGDPEFYRKIMFVPDPEPIYEAILAMKDKGWWIEITNLVVPILGDKPEYVRRMARWIVENLGPEVPFHLLRFHPDYKLRHVPHTPVKTLEKLARIAMEEGLKHVYIGNVWGHPLEDTYCPKCGYKVVDREGFAIVEWRLTSDFRCPRCGYKLNFRGEYTPRNINYPMPVM", "soluble on expression in E. coli": "not soluble"}, {"sequence": "MKVLVSPMSVAEAIEAIEGGADIIDVKNPAEGSLGANFPWVIREISELAKKYGKEISATTGDMPYKPGTASLAALGAAVAGADYIKVGLYGVKNAEEAYEMMVGVVRAVKDFDSSKKVVAAGYGDYYRISSVSPLDLPEAVAKAGADIVMVDTAIKDGTSLFDHMKIGDIESFVKLARDNGLMVALAGNISWNHIETLKELSPDIIGVRSIVCEGDRSSMIKRELVVKLMEAVHG", "soluble on expression in E. coli": "not soluble"}, {"sequence": "MGSDKIHHHHHHAADWQLEKVVELSRHGIRPPTAGNREAIEAATGRPWTEWTTHDGELTGHGYAAVVNKGRAEGQHYRQLGLLQAGCPTAESIYVRASPLQRTRATAQALVDGAFPGCGVAIHYVSGDADPLFQTDKFAATQTDPARQLAAVKEKAGDLAQRRQALAPTIQLLKQAVCQADKSCPIFDTPWQVEQSKSGKTTISGLSVMANMVETLRLGWSENLPLSQLAWGKITQARQITALLPLLTENYDLSNDVLYTAQKRGSVLLNAMLDGVKPEANPNVRWLLLVAHDTNIAMVRTLMNFSWQLPGYSRGNIPPGSSLVLERWRNAKSGERYLRVYFQAQGLDDLRRLQTPDAQHPMLRQEWHQPGCRQTDVGTLCPFQAAITALGQRIDRSSAPAVAMVLP", "soluble on expression in E. coli": "not soluble"}, {"sequence": "MGSDKIHHHHHHMQAKTTLEQWEILQAVIDLGGYTQAANVLHRSQSSVSYQLSLLQERLGIELLTIHGRKAELTPEGENLLAQARSVIRSFHALEARAHSLKMGEQASINLVVDSTFPKDRLFHLLSTFQKQHPATRIHLTEVLRNETSAQLKARDADIYIITQREIDGCAGRWLMNVDFVAVAHSHHPLFSLPTPLSHEALSRYPCVEIVMRTPPHSQPASAESWTFTTFEAATQAVLHQVGYGWLPEARISEHITRGELHILPLQQGERRTTPLYLLAEEKGQPLGKEIIMLIELLFGRL", "soluble on expression in E. coli": "not soluble"}, {"sequence": "MTTDSLSQIDTDQDEYGEEIEMASNSLGNLPDVVLQHLAPFLQWSTCRALSEVNLRFRSHFKQHLKEGQALSIKGQVSVGVGDRVNDCQNVSFLSEFYTIRVEMDDNMVVDWTLKLQSGVRTVVHRHYDGNTQTTTTKSVHLSSRDYLEKVLKWILARYQFKKIHLGVQGLAPLFSSYKGEIENVGISDEIEYLKLAEKFRPKHLTLFKPAQNTYNKGFFDLKKFPQLEELRMYGVPLDLDQLIESNISEVAADTIDKDIKLKHVRKIINNWKNGIINYKSIMISPSCSQFGIYCPHNQWSELTDHLVEANALYDNVVNIKEKIGSARYSPRSFEFEVWEADRY", "soluble on expression in E. coli": "not soluble"}, {"sequence": "MGSDKIHHHHHHMNTTASPSRLLGVGLYTASQASSYTGIPAKDIRRWMFGYSASGVEHPGLWAPEIAFLDDKLLGFHDLLEIRFVHAFRQHGVSLQAIRSASLQAREMFGQRYPFTCRRFQTDGRDIFATVLDETGDEALLDLVKRQYAFKQVITPSLYEGIDYAGEESAKRWYPVKRSKAVVLDPARNFGKPVLTITGIDTAAIYHSYLAEGQSAKRVALLYEIPPAAVEAAVNFEHRIAA", "soluble on expression in E. coli": "not soluble"}, {"sequence": "MSLSDELAKLVVEVTSPDGNIKAKLVAGEQLTVAFRPGTYARYDERGLEHQLSRLAMLAWTGYRRGFFEAKGRAEDISAKDAEKEHLNHWDANTRRYNEEMAQIVARGKSSGNVIRAQAKGLAFWKVEIRDGTLASMDEATFCAECVSVLAAVQRDSKNQEILLKDFYFGLNIPKSWRKKNPLRIERGVMD", "soluble on expression in E. coli": "not soluble"}, {"sequence": "MTRTPLTLEQLNALSDDAFTEHFAGVLEHSPHYARRAAAGRPFADVEEVAAAFARAVAADEPGAQVQLIRAHPDLAGKAALAGELTAESASEQTSAGLDRLSPEEYAEFQRLNAAYHERFGLPYVVCVRENTKDTIFEGARRRLTHTQEEEQAAALHEIGRIARLRILDLVQEGRQEKRMDGRLIRIPLEHHHHHH", "soluble on expression in E. coli": "soluble"}, {"sequence": "MGSDKIHHHHHHMDIELREKIAGEITLSDSPAETIRKWREEFKVSQLELSNFLNQSPSVISDYETGRRKFPSIASVRKIVDALITIDERRGGYVIKKYKSGVPSDALIDIKDYDRDVPLEKAIRAMNGKNVSHVSVERNIRGYTIVDGVKAILAFSYYEYSKLYGWSSERAIFFTDVKFGRSPMIAIRVHPLKPAAVVYIQPDNVDDLAIKLADIENIPLLITEMSPEAVSHVMSQLR", "soluble on expression in E. coli": "not soluble"}, {"sequence": "GSSGSSGQFSDMRISINQTPGKSLDFGFTIKWDIPGIFVASVEAGSPAEFSQLQVDDEIIAINNTKFSYNDSKEWEEAMAKAQETGHLVMDVRRYGK", "soluble on expression in E. coli": "soluble"}, {"sequence": "MAHHHHHHMRYFRVLHNFDAQDGVELTVKKGETVFTAESEVREGWIKVEVLHDPRRRGFVPFNYLRETTESLAREQEEGSRGIGRESGGMSTASMTLQPSAVPRETSVTFTSGALDYGDRLQNMYGVGASAPSPVSQRSRSAEQGMKRVNENSMATATKGAVMEPLLPSQKVPSSPPSGADPVPERSLLNNPSAIVEAFMKNELHFKQLIRQRQDALAQMRTTVEEAMSELAACKEKNFTLARKLRELDQSVEKERGRWKERIMEEKAYISRSMSSE", "soluble on expression in E. coli": "soluble"}, {"sequence": "MGSDKIHHHHHHMIPSSMKAMVLKGHGGIDQLMYQDVPVPQPREGEVLVQVTATAKNNTDRKAREGLYPTKKGEMTSFQMGGKPTLTFPRIQGADIVGRIVAVGAGVSEQRIGERGLLDFNIYADNRTDINLTPDYYGHGADGGYAEYVALPSDQFHHIPNPDLADAELASMGMCSYQTAYHMLTSANIQAGERVLVTGASGGVGTALIQLCRIIGAIPYALSQKDKADSLLKLGAEAVLDRTDMDSFVDRVKAETGGKPLDAVMDLVGGDMTDRFIDAMIFDMNARSTYPRLSIAGASGGNISEILWTRIYLYQVQIFGVSHGTREEAEQLMRWIRSGDLKPVLHGAFRLSELHRAEEYFVNRGSNYLGKIVIVPDAQWQEHGQPYEVEAD", "soluble on expression in E. coli": "not soluble"}, {"sequence": "MSLEKSGFIVHQKFDSILQLEDFDSLDRALKESESYYQKLPSNWKTQVRKTSYHKNQMLNSLKILKKILREKNPESRKIQFQNSFLLLETKDEALGRITAYYEVIIEGRFYPEGDFIYPVLETPSDLIVKKDGNKKSVGKIINEVFVPYETREELSHTSVWKKRSKAIVYVKIVDLHLAQLEGSAFVKVPDHIPFRITYSEDNGKEYQSPAESLKGICSSLIPSDLKSCILKYPKEVEMAILKNPRYIFFKLESSAPRGSGGIELIPKRSVAMDPGIPLGIPVLISFESSVLTEKNRIVFVHDRGSQITGHGRLDYFLGTGETAEYQAGKINTQGKIFLILPKIKNEGHHHHHH", "soluble on expression in E. coli": "soluble"}, {"sequence": "MVPKTATSTETKTITRIIHYVDKVTNQNVKEDVVQPVTLSRTKTENKVTGVVTYGEWTTGNWDEVISGKIDKYKDPDIPTVESQEVTSDSSDKEITVRYDRLSTPEKPIPQPNPEHPSVPTPNPELPNQETPTPDKPTPEPGTPKTETPVNPDPEVPTYETGKREELPNTGTEANATLASAGIMTLLAGLGLGFFKKKEDEKLEHHHHHH", "soluble on expression in E. coli": "soluble"}, {"sequence": "MGSDKIHHHHHHMNTSISASWGRYINAIPPRSGEAALAPLSSFVDGQCIYSFGERADQVYQVEFGAVRVYRLAANGRRQILAFHFGGNWFGLQSRDRHSSNAEAIGVTGVRCISLQEEPLFRPALFSAALDNVSAAQEHQLVIGRQSAIERVAAFLLEMSERSGYSRRFELSMSRVDVADYLALTVETVSRSLTKLKHRGFIELHGARGIELVGYRALQNLCL", "soluble on expression in E. coli": "not soluble"}, {"sequence": "MSLNEIDKSVDIGFLRILDVIKKVKTPKGGIEVLRTLIDFTPKIENALNLATKSHKGQYRKSGEPYIVHPICVASVVAFCGGDEAMVCAALLHDVVEDTPCEIETIEREFGQDVANLVDALTKITEIRKEELGVSSQDPRMVVSALTFRKILISAIQDPRALVVKISDRLHNMLTLDALPHDKQVRISKETLAVYAPIASRLGMSSIKNELEDKSFYYIYPEEYKNIKEYLHKNKQSLLLKLNAFASKLEKKLFDSGFSHSDFKLVTRVKRPYSIYLKMQRKGAVNIDEILDLLAIRILLKNPIDCYKVLGIIHLNFKPIVSRFKDYIALPKENGYKTIHTTIFDESSVYEVQIRTFDMHMGAEYGNSAHWKYKAGGVDHEEHHEGMRWLQNFKYHDSDLKNDPKEFYELAKNDLYREDIVVFSPHGDTYTLPVGAIALDFAYMVHSDLGDKATDAYINSKKALLNQELRSGDVVKIIKGDKVIPRFIWMDQLKTSKAKNHLRIQRRNRLKEIDTKSMINILATFFGRSVFEDADLKDYKNFEEKLTDCGVETTLTEAMKSFENLAKLTEEIENKVFSLKEDAILEYQEMSLWTRGLRYLGFKTNVLNFLTPNRQWQCKELEHFSVCSSNALEIKQVLLNDCCYPKYGDEIIAIVTDLKDPKAIAHHKFCKKAIAEVDAKVPMVYIEWHKRDRTIYKMMFYLGEKKSVLASLLTFLNRNECNIVGVSYLGYKDKYSSHCEVSFEIATDKADWMRALINRKYQDRIVELSSLDDAYELQEGHHHHHH", "soluble on expression in E. coli": "soluble"}, {"sequence": "MGSDKIHHHHHHMVKNNNIAVKVEHVSKSFKLPTESSQSLRTTLVNLFKGIKGYVEYNVLQDISFEVEKGDFFGIVGRNGSGKSTLLKILSQIYVPERGTVAVDGKLVSFIELGVGFNPELTGKENVYLNGAMLGFTAEEIDAMYDDIVEFAELSEFMNQKLKNYSSGMQVRLAFSVAIKAQGDILILDEVLAVGDEAFQRKCNDYFLERKKSGKTTILVTHDMGAVKKYCNKALLIEKGYVKALGEPDDVANQYSFDNVLASISEVTENEEPLHQSDIVKDLQINLVSKNQIEPDESIEIEFRYTVLEDIETHVAFTFLDLERHFDVYNDNSMDLKTFGKGEKFFRVKCKLPSINQAKLKMAVSVRNSNKQPLLFAKTSDTPAIFISRKFSTDNIAEEDAATGFIQRNSQWELLD", "soluble on expression in E. coli": "not soluble"}, {"sequence": "DEILIDPHAVLGPVDPQLMNYPAPSILKVVEKKEPKDIDDKTLIMADIAEKAINQVRETVFNLLKDKMDEEKAREVAKILTEGRWTHDYPLTVEELRQLGLKVSTDVPEEVYELMELYPQPMMQRHPGVEFVPSPPKGEKPSFK", "soluble on expression in E. coli": "not soluble"}]}]}
